# Literature values in article PMC13242717.
# Target: spike protein (SARS-CoV-2) (UniProt P0DTC2)
substance,measurement,value
spike protein (from UniProt P0DTC2),Kd,300 nM
